Positions count from the first letter of the chain named. Each block holds one binder with its values, some of them ahead of it.
Columns and labels:
[1] = molecular target: T1, human CD3 expressed on cells (Jurkat cells; human T-cells of PBMC) (human, UniProt P09693 23-182; P20963 22-164); assay: cell-based or functional assay
[2] = molecular target: T1, human CD3 expressed on cells (Jurkat …); assay: cell-based or functional assay; remark: listed apart in the source
[3] = molecular target: T2, Soluble heterodimeric CD3 protein (hCD3-epsilon/hCD3-delta) with either a human Fc tag (hFcΔAdp/hFc) or a … (human, UniProt P07766 23-126; P04234 22-105); assay: SPR Biacore 25C antigen-capture
T2 construct: also called hCD3ε/δ; not shown: Fc tag: human (hFcΔAdp/hFc)
Outline: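 Rate constants fitted to a 1:1 model, giving KD as kd/ka and dissociative half-life as ln2/(60·kd) minutes. Antibodies flowed over CD3ε/δ heterodimer captured on anti-human or anti-mouse Fc surfaces, run on a Biacore T200 at 25 °C.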

[4] = molecular target: T3, human CD3 expressed on cells (Jurkat cells, a CD3+ human T-cell line; human PBMC T cells) (human, UniProt P07766 23-207; P04234 22-171); assay: cell-based or functional assay
[5] = molecular target: T3, human CD3 expressed on cells (Jurkat …); assay: FACS on Jurkat cells
Experimental: (§1) FACS data was acquired using the following protocol: Cells at 2×10⁵ per well were incubated with serially diluted antibodies for 30 min on ice. Post incubation, cells were washed and secondary antibody was added and incubated for an additional 30 minutes. After incubation, cells were washed, re-suspended in cold PBS containing 1% BSA and analyzed by flow cytometry with viable Jurkat cells gated by side and forward scatters. The EC₅₀s for cell binding titration were determined using Prism software with values calculated using a 4-parameter non-linear regression analysis.

[6] = molecular target: T1, human CD3 expressed on cells (Jurkat …); assay: FACS titration on Jurkat cells (CD3+ human T-cell line)
Experimental: as §1

T1 sequence (chain, as listed by the source, chain 1 of 4): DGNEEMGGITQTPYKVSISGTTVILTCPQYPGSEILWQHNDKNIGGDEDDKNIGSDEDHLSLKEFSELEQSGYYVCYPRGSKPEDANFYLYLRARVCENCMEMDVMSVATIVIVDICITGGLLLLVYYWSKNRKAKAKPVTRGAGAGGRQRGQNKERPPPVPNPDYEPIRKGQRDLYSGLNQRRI
T1 sequence (chain, as listed by the source, chain 2 of 4): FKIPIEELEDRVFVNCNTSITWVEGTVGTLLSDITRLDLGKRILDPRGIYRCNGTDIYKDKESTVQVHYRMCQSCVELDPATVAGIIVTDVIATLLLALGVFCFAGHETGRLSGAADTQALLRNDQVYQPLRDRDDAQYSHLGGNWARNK
T1 sequence (P09693 23-182, chain 3 of 4): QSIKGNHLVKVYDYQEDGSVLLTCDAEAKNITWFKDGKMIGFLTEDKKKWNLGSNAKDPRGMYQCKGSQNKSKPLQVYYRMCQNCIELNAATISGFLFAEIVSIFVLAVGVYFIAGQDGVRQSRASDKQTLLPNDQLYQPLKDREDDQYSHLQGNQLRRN
T1 sequence (P20963 22-164, chain 4 of 4): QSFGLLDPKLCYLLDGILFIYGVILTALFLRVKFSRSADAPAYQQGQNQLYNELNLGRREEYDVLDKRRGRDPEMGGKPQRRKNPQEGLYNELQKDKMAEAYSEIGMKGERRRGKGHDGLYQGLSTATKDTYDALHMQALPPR
T3 sequence (P07766 23-207 limits assumed, chain 1 of 2): as the sequence (chain, as listed by the source, chain 1 of 4) above
T3 sequence (P04234 22-171 limits assumed, chain 2 of 2): as the sequence (chain, as listed by the source, chain 2 of 4) above
T2 sequence (P07766 23-126 limits assumed, stated change not applied, chain 1 of 2): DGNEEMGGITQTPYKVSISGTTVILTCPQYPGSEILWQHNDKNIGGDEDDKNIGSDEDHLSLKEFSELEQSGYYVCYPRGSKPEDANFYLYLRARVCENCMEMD
T2 sequence (P04234 22-105 limits assumed, stated change not applied, chain 2 of 2): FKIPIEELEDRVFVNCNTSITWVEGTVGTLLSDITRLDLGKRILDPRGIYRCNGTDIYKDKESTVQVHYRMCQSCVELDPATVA

B3: H1H5763P (antibody, human IgG1, V domains shown)
VH: QVQLVESGGGVVQPGRSLRLSCAASGLTFSSYGMHWVRQAPGKGLEWVAVISYDGSNKYYTDSVKGRFTISRDNSKNTLYLQMNSLRAEDTAVYYCAKGAMVRGVPYNYYYGMDVWGQGTTVTVSS
VL: DIQMTQSPSSLSASVGDRVTITCRASQGIRNDLGWYQQKPGKAPKRLIYAASSLQSGVPSRFSGSGSGTEFTLTISSLQPEDFATYYCLQHNSYPYTFGQGTKLEIK
notes: H1H: human IgG1 Fc
EC50 [6]: 2.76 nM | EC50 [M] hPBMC Proliferation [1]: 3.11e-13 M

B4: H2M3540N (antibody, mouse IgG2, V domains shown)
VH: QVHLEESGGGVVQPGRSLRLSCSASGFTFSSYAMHWVRQAPGKGLEWVAVIWYDGTNKYYLDSVKGRFTISRDNSKNTLFLQMNSLRAEDTAVYYCARDRGSIITHWGQGTLVTVSS
VL: DIQMTQSPSSLSASIGDRVTITCRASQNISSYLNWYQQKPGKAPKLLIYAASSLQSGVPSRFSGSGSGTDFTLTISSLQPEDFATYYCQQTYSTPPITFGQGTRLEIK
notes: H2M: mouse IgG2 Fc, human variable regions; divalent
Kd [3]: 0.231 nM | T½ [3]: 0.333 h | koff [3]: 0.000587 s⁻¹ | kon [3]: 2.55e+06 M⁻¹ s⁻¹ | EC50 [M] hPBMC Proliferation [4]: 3.16e-12 M | EC50 [5]: 3.99 nM

B6: H2M3543N (antibody, mouse IgG2, V domains shown)
VH: EVQLVESGGGLVQPGRSLRLSCAASGFTFDDYTMHWVRQAPGKGLEWVSDISWNSGSIGYADSVKGRFTVSRDNAKNSLYLQMNSLRGEDTALYYCAKDMSGYAHYGYYGMDVWGQGTTVTVSS
VL: B4 VL with I15V, N28S, S30R, S31N, A43V, T91S, T94N
notes: as for B4
Kd [3]: 0.653 nM | T½ [3]: 2.42 h | koff [3]: 7.96e-05 s⁻¹ | kon [3]: 122000 M⁻¹ s⁻¹ | EC50 [M] hPBMC Proliferation [4]: 6.12e-12 M | EC50 [5]: 5.63 nM

B8: H1H5786B (antibody, human IgG1, V domains shown)
VH: QVQLVESGAEVKKPGASVKVSCKTSGYTFTGYYMHWIRQAPGQGLEWMGWINPKSGGTNYAQKFQGRVTMTRDTSISTAYMELSRLRSDDMAVYYCARMGDGAVFDFWGQGTLVTVSS
VL: AIQMTQSPSSLSASVGDRVTITCRASQRISSFLNWYQQKPGKAPKLLIYTASNLQNGVPSRFSGSGSGTDFTLTISSLQPEDFATYYCQQSYRTPLTFGGGTKVEIKR
notes: H1H: human IgG1 Fc
EC50 [6]: 1.1 nM | EC50 [M] hPBMC Proliferation [1]: 1.79e-12 M | U937 Cytotoxicity Human T-cells [2]: 61 pM

B9: H1H5791B (antibody, human IgG1, V domains shown)
VH: B8 VH with F29L, T30S, I37M, G57V, G66D, T69A, M91T, G109A
VL: B8 VL with A1D, M4L, V104L
notes: H1H: human IgG1 Fc
EC50 [6]: 3.77 nM | EC50 [M] hPBMC Proliferation [1]: 1.75e-12 M | U937 Cytotoxicity Human T-cells [2]: 80.1 pM

B10: H1H5752P (antibody, human IgG1, V domains shown)
VH: QVQLVESGGGVVQPGRSLRPSCAASGFSFRDYGMHWVRQAPGKGLEWMAHIWYNGKNKYYADSVKGRFTISRDNSKNTLYLQMNSLRPEDTAVYYCARDGVSARGTPFDYWGQGTLVTVSS
VL: ETTLTQSPAFMSAAPGDKVSISCIASQYIDDDVNWYQQKPGETAIFIIQEASTLVPGISPRFSGSGYGTHFTLTINNIDSEDAAFYFCLQHDNFPYTFGQGTKLEIK
notes: H1H: human IgG1 Fc
EC50 [6]: 0.343 nM | EC50 [M] hPBMC Proliferation [1]: 1.09e-12 M | U937 Cytotoxicity Human T-cells [2]: 18.5 pM

B12: H1H5755B (antibody, human IgG1, V domains shown)
VH: EVQLVESGGGVVQPGRSLRLSCAASGFTFSNYGMHWVRQAPGKGLEWVTVILHDGSYKYYADSVKGRFTISRDNSKNTLHLQMNSLRTEDTAVYYCAKGPMFRGVPYNHYYGMDVWGQGTTVTVSS
VL: DIQMTQSPSSLSASVGDRVTITCRASQGIRNDLGWYQQKPGKAPKRLIYAASSLQSGVSSRFSGSGSGTEFTLTISSLQPEDFATYYCLQHNSYPYTFGQGTKVEIKR
notes: H1H: human IgG1 Fc
EC50 [6]: 1.23 nM | EC50 [M] hPBMC Proliferation [1]: 4.24e-12 M | U937 Cytotoxicity Human T-cells [2]: 51.6 pM

B13: H1H5757B (antibody, human IgG1, V domains shown)
VH: B12 VH with N31S, Y57N, K58R, Y60S, H80Y, S85I, T88V, A97T, P100A, F102V
VL: B12 VL with S53I, S59P, V104L
notes: H1H: human IgG1 Fc
EC50 [6]: 3.38 nM | EC50 [M] hPBMC Proliferation [1]: 4.86e-12 M | U937 Cytotoxicity Human T-cells [2]: 96.5 pM

B14: H1H5758B (antibody, human IgG1, V domains shown)
VH: B12 VH with N31S, Y57N, K58R, H80Y, S85I, T88A, A97T, P100A, F102V
VL: B12 VL with Q3V, S53N, S59P, V104L
notes: H1H: human IgG1 Fc
EC50 [6]: 1.9 nM | EC50 [M] hPBMC Proliferation [1]: 2.13e-12 M | U937 Cytotoxicity Human T-cells [2]: 88600 pM

B17: H2M2862N (antibody, mouse IgG2, V domains shown)
VH: QVQLVESGGGVVQPGRSLRLSCAASGFTFRSYGMHWVRQAPGKGLEWVAMIYYDGNNKKYADSVRGRFTISRDNSKNTLYLQMNSLRVEDTAVYFCARGPGYNWLDPWGQGTLVTVSS
VL: EIVMTQSPATLSVSPGERATLSCRASQSVSRNLAWYQQKPGQAPRLLIYGASTRATDIPARFSGSGSGTEFILNISSLQSEDFALYYCQQYSNWPLTFGGGTEVEIK
notes: as for B4
Kd [3]: 0.541 nM | T½ [3]: 0.6 h | koff [3]: 0.000321 s⁻¹ | kon [3]: 591000 M⁻¹ s⁻¹ | EC50 [M] hPBMC Proliferation [4]: 6.72e-13 M | EC50 [5]: 7.68 nM

B19: H1H5782P (antibody, human IgG1, V domains shown)
VH: EVQLVESGGGLVQPGRSLRLSCAASGFTFDDYAMHWVRQAPGKGLEWVSGISWNSGSKDYADSVKGRFTISRDNTRNSLFLQMNSLRTEDTALYYCAKDKSGYGSFYYGMDVWGQGTTVTVSS
VL: not shown
notes: H1H: human IgG1 Fc
binding result [6]: no binding | EC50 [M] hPBMC Proliferation [1]: 5.17e-12 M | U937 Cytotoxicity Human T-cells [2]: 5.18 pM

Now from value to binder, other results behind:

EC50 [M] hPBMC Proliferation [1]: 9.14e-11 M
B1: H1H5753B (antibody, V domains shown)
VH: QVQLVESGGGLVQPGGSLRLSCAASYFTFSSFAMNWVRQAPGQGLEWVSAISGRVSAISGSGGITYYADSVKGRFIISRDNSKNTLYLQMSGLRAEDTAVYYCAKGPYLTTVTPFDYWGQGTLVTVSS
VL: DIQLTQSPSSVSASVGDRVTITCRASQGISSWLAWYQQKPGKAPKLLIYAVSSLQNGVPSRFSGSGSGTDFTLTISSLQPEDFATYYCQQANSFPFTFGPGTKLEIK
U937 Cytotoxicity Human T-cells [2]: 379 pM

Kd [3]: 13.8 nM | T½ [3]: 0.167 h | koff [3]: 0.00116 s⁻¹ | kon [3]: 84000 M⁻¹ s⁻¹ | EC50 [M] hPBMC Proliferation [4]: 6.4e-12 M | EC50 [5]: 3.7 nM
B2: H2M3541N (antibody, mouse IgG2, V domains shown)
VH: B6 VH with Q13R, S57T, V70I, G88P, G107Y
VL: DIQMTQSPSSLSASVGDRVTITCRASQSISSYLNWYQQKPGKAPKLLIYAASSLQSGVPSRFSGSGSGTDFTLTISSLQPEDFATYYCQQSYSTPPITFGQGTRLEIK
notes: as for B4

Kd [3]: 0.0773 nM | T½ [3]: 4.03 h | koff [3]: 4.77e-05 s⁻¹ | kon [3]: 616000 M⁻¹ s⁻¹ | EC50 [M] hPBMC Proliferation [4]: 7.74e-12 M | EC50 [5]: 1.07 nM
B5: H2M3563N (antibody, mouse IgG2, V domains shown)
VH: B6 VH with Q3H, A104G, Y108K
VL: B4 VL with I15V, N28S, S30R, A43V, S76N, E81D, T94N
notes: as for B4

Kd [3]: 0.295 nM | T½ [3]: 14.1 h | koff [3]: 1.37e-05 s⁻¹ | kon [3]: 47500 M⁻¹ s⁻¹ | EC50 [M] hPBMC Proliferation [4]: 1.28e-10 M | EC50 [5]: 21.9 nM
B7: H1M2712N (antibody, mouse IgG1, V domains shown)
VH: EVQLVESGGGLVQPGGSLRLSCAATGFTFDDFTMHWVRQAPGKGLEWVSGISWNSGSIGYVDSVKGRFTISRDNAKNSLYLQMNSLRAEDTALYYCAKDNSGYGYYYYGMDVWGQGTTVTVSS
VL: B17 VL with Q27H, L33S, D57G, I72T, N74T, L85I, S92N, E103K
notes: H1M: mouse IgG1 Fc; divalent

Kd [3]: ≤ 0.0215 nM | T½ [3]: 19.2 h | koff [3]: ≤ 1e-05 s⁻¹ | EC50 [M] hPBMC Proliferation [4]: 5.02e-12 M | EC50 [5]: 2.71 nM
B11: H2M3547N (antibody, mouse IgG2, V domains shown)
VH: EAQLVESGGGLVQPGRSLRLSCTTSGFTFDDYTMHWVRQAPGKGLEWISDISWNGGTKGYADSVKGRFTISRDNAKNSLYLQMDSLRGEDTALYYCVKDKSGYGHFYFGLDVWGQGTTVTVSS
VL: DIQMTQSPSSLTASVGDRVTFTCRASQSISRHLSWYQQKPGKAPKLLIYAASSLESGVPSRFSGSGSGTDFTLTISSLHPEDFATYYCQQSYSNPPITFGQGTRLEIK
notes: as for B4

Kd [3]: 0.111 nM | T½ [3]: 1.27 h | koff [3]: 0.000152 s⁻¹ | kon [3]: 1.37e+06 M⁻¹ s⁻¹ | EC50 [M] hPBMC Proliferation [4]: 2.49e-12 M | EC50 [5]: 2.09 nM
B15: H2M2885N (antibody, mouse IgG2, V domains shown)
VH: B17 VH with Y32F, K43R, Y53F, N56K, K59Y, Q82E, N84S, V88A
VL: EIVMTQSPATLSVSPGERVILSCRASQSISRNLAWYQQKPGQAPRLLIYGATTRATGVPARFSGSGSGTEFTLTISSLQSEDFAVFYCQQYNNRPLTFGGGTEVEIK
notes: as for B4

Kd [3]: 0.554 nM | T½ [3]: 0.6 h | koff [3]: 0.000321 s⁻¹ | kon [3]: 580000 M⁻¹ s⁻¹ | EC50 [M] hPBMC Proliferation [4]: 2.51e-11 M | EC50 [5]: 2.16 nM
B16: H2M2777N (antibody, mouse IgG2, V domains shown)
VH: B17 VH with A23I, K59Y, V88A, E89D
VL: B17 VL with R31S, D57G, I72T, N74T, L85V, S92N, W94R, E103K
notes: as for B4

Kd [3]: 0.0956 nM | T½ [3]: 1.42 h | koff [3]: 0.000136 s⁻¹ | kon [3]: 1.42e+06 M⁻¹ s⁻¹ | EC50 [M] hPBMC Proliferation [4]: 2.69e-12 M | EC50 [5]: 3.97 nM
B18: H2M2886N (antibody, mouse IgG2, V domains shown)
VH: B17 VH with Y32F, K43R, Y53F, N56K, K59Y, Q82E, N84S, V88A
VL: B15 VL
notes: as for B4
